Experimental data: the DeepSol protein solubility set

Assay: soluble on expression in E. coli; label from the status in PepcDB or PDB records
In the case of “MAHHHHHHMSDNFFIPTFEHIYEQSIPPPLIKHSRKCKNYNKKRKNIIKYTSQDICVEQRNYDKENKEHKYVCINFHTFNKKCYHKNIRLLDHTHLDFTLGESLMYLLNAIIEVISKLKEGKEYKWNIKGKLINSKKENNIQIVYIENAFLSFKSIVLHAPLLKIKSIDI”, the “soluble on expression in E. coli” value is reported as “not soluble”.
In the case of “MAHHHHHHMSEEKGAYLVFDNASNGTLFIVWKKEKVENALMFIKPTKEVPEFKFVNRNGKNELIRNLQSDKKLFYSGICQFVKEAKDIKGKLTLLQHFDSSFPIKVDLYFLKGSKVMPLNTGEPFVVQDIDAMSVLPKGSSSLKVKTMAKDMFVSRGNTEGASISF”, the “soluble on expression in E. coli” value is reported as “not soluble”.
With “MAHHHHHHMSEGGRRRKVYGFKAERQAFFSKHVRQTFLEEGRKKKDEERARMEAYRKLCEEEGIVSKRLEDYDRTRKAAKEHLSSTLEQIDYDQSLTNNEKKKRKYNLKRKFAATTVNDLIDKQQKHYSAVSGMEEVQRRQQQEREEKQKARQEREREKQSRVQARKSRNALFAKRTKKGQPAMSSRVESLLQKISWQ” the “soluble on expression in E. coli” value was “not soluble”.
For “MAHHHHHHMSESPMCLFIACSTRDNTSREYIYTILKNRLLGSHVCIDTNILDVPTNLKFCSFDDLLKCADDLQKYDSYAYGCLKKIEKLAKEYDENIELKIIYQRQHINIDQYIRRFTWDDAKYPRNRSLTDTIDVMVNNITKLSDEIHIKSSMLNDLKEKKKKDIPKTDTNNFFLKNLNEILTPQTVSQADFMETEYLTTLIAYIPKNSVDEWLASYEKFSQYVVPRSTEQFKGLVDKDGNTLWKVYVFKKFAESFKEAAKLKKFVVKSFKYDEQKYNDVMESRTKVEAEIIRQETFLRRMCLAAFSDIFSAFIHINILRVFCESVLRFGVPPNFASFSIRINGESKEKKVRKKLYDIFSSTDSIGKNYIKRSDENDEEIYPYVSVSFKI”, the “soluble on expression in E. coli” value was “not soluble”.
With “MAHHHHHHMSFHPRDAFILHQEYIQRLNEGDEVDTSAEQKVELNLQRHADSESAATVTFSHEDHTLGNPLRHVIMEDPSVTSAGYAIPHPLEAKMQLHVQSSEYAVETVAKGLERLAAICDETLKSFNACVEAISAEDPEGH” the “soluble on expression in E. coli” value was “not soluble”.
For “MAHHHHHHMSLADPHPLEAATTPASSLSNSIRLALLPASMKLPRDKSSSPELLAVFLPPDFCCMSVKSSTQNSSLFSSGISTVSPGRGCSVMEWRAIMQPVLLSLFKHWSVAAIRPGLFRRFCVGDVLFARERKLANSTPSAPCVNFPHRSTRVGAPRALRADCSSSSSSCKERKRHEWQDSRASESQEASPLLETSLPLLLWSSG”, the “soluble on expression in E. coli” value was “soluble”.
For “MAHHHHHHMSLNAAAAADERSRKEMDRFQVERMAGQGTFGTVQLGKEKSTGMSVAIKKVIQDPRFRNRELQIMQDLAVLHHPNIVQLQSYFYTLGERDRRDIYLNVVMEYVPDTLHRCCRNYYRRQVAPPPILIKVFLFQLIRSIGCLHLPSVNVCHRDIKPHNVLVNEADGTLKLCDFGSAKKLSPSEPNVAYICSRYYRAPELIFGNQHYTTAVDIWSVGCIFAEMMLGEPIFRGDNSAGQLHEIVRVLGCPSREVLRKLNPSHTDVDLYNSKGIPWSNVFSDHSLKDAKEAYDLLSALLQYLPEERMKPYEALCHPYFDELHDPATKLPNNKDLPEDLFRFLPNEIEVMSEAQKAKLVRK”, the “soluble on expression in E. coli” value was “soluble”.
With “MAHHHHHHMSLPPRGPSSPPAKCPQECVASSCVSLPITPPCIARRVLPLFPPPGWHMYDAYRNCFQYRPDVQRKLVKAVQRERHLRHLAAPHAGDAATSSAEVSAAVLRKEVMEMDSTCCCCALDAAHLFATPEDMPTPPLPLSRCELHEVLLALSPRWQSYPWRLCFDTASDGFSLSSLYRCMEAVDAKQSQVKTVAFGLFFVHSREDAALTNAQTASPVDSLSASSTSPSYALWPPTAGAPHSFCEAHHSSSRRYGAAHGALQHSVLGCFTPEVPCLGRHAANIYFGSTDTFVFRLDQLSCAPSRGAWMATDVEKKQSSQRAQQQEQQQQHGKAAEPHTCAPATSTRAVGAAPAYGYAKLALADDDIAGVPVPMPSRVTIEHAGDSKHAVDKSMVHSSPLLPPSEVPPLLNPSPLRAAVVSSSNAAAMSSVHGAPDIVVPSPRGRWHRLLRPVQPARVVPHAPLLEKFTWCGNMHNRKFIVCNPHFFAIGGGQSGAALYVDEALQYGTSSTWCETFNAPCLFGPRMGSADVSSVPSLVQSYMSGNDSPSGGPARPTSGLPHVEFAISRVVWFSVTEDKRTLRMMSAADASLPSAEAHRCGCGRFSCASASHTTTLDPMSTEKSTAPSPPPASTFLHQCDLLPFAAPM” the “soluble on expression in E. coli” value was “not soluble”.
In the case of “MAHHHHHHMSLTKGSKAAQDVISFLHTVGRLKVTARQGWVENQICSPESVSDHMYRMSLMCMMCPDTSLNRDRMVKMALCHDTGESIIGDISPAMKVPKEVKKQQESQAVQSLCKLVSSSPNTTFSKELGDLFEEYEAQETAESHFVKDMDLLEMVVQAHSYESANPGKDLGSFFRSGANIHHPWARAIYETLLETRPYLAYKEEQAKEASSI”, the “soluble on expression in E. coli” value is reported as “soluble”.
For “MAHHHHHHMSRLMPHYSKGKTAFLCVDLQEAFSKRIENFANCVFVANRLARLHEVVPENTKYIVTEHYPKGLGRIVPEITLPKTAHLIEKTRFSCVVPQVEELLEDVDNAVVFGIEGHACILQTVADLLDMNKRVFLPKDGLGSQKKTDFKAAIKLMSSWGPNCEITTSESILLQMTKDAMDPNFKRISKLLKEEPPIPL”, the “soluble on expression in E. coli” value was “soluble”.
In the case of “MAHHHHHHMSRLVMTAPPSLPPFLLLSGASSPPPPPISHTHTHTHTHTHTAMASLAHLSTPLPSEPSAAAPPPAASAPAGALHLERFLESVLKQNLDTVLSQRDELYATVAQCAQLRWLMDDMQALSRYHSFIEASTAAETAAAVPLSALSPVASGSPNASLPLMSKRAQADAYKPPQKNKVLVDLGNHFYTQGVVKDAGVLFMNMGCGVVLPMSLDEAREFLRKKEAVVRRMIMNKSKEALRIKYRIRLVTEAIARLHERHLGL”, the “soluble on expression in E. coli” value is reported as “not soluble”.
For “MAHHHHHHMSTNSAKILSRVREAMKLHSINALIVPSSDPHNSEYVMDSYKCRGFLTNFNGSAGTCLITMEEAYLWTDGRYWLEAGHCLYPEWQLMRDGHPGVPSLEDFVRLNLQPDLLVGMNDNLATVAEWERRRKAINLVPIPEIVRPLMPQNSDAKAEMLSIRPEQFCGQTREEKVMALVEELKGQKCEAMILSALDEVAWLTNLRGSDVPYNPVFYSYALVRSAPDPTVALFVDSAKVSSPVEAELTQSGRSVVSVSLHPYEALEDYVRALPAGTAFLVDEYQTSQRLYSLLESCKMKVNRVKCGPAQRLKAVKNAVEIEGFRRCHVRDGVALTRYLAWLHDMIVVKGDTTITECSGADVVEGFRREQEHFVQLSFPTISSVGPNGAVVHYTPPKEGSATIVPDQLYLVDSGAQYLDGTTDVTRTVCFNPPSDEERQAYTLVLKGHLALHNAVWPTGTTGHRLDALARVHLWRYGLDYAHGTGHGVGSFLNVHEGPQGIGYRPTPTEATLAAGMIMSNEPGYYKAGKYGIRIENLEVIVRAPTRHSQEGFLTFEALTMVPLCRDLIDVSMLTADEVRLVNDYHRTVRDALTPHLRRVNDSCALAYVERHTAELCALEGGC”, the “soluble on expression in E. coli” value was “soluble”.
With “MAHHHHHHMSVVTTLSGVFEADLEATLMGYIHEAIGNAVNKGLQYARSTAQDRVLKMLIAYRRVCTSNATSSLLMPSRLRLIPLFVLSFMKADALVEGTTVPIDDRVQKLFLLMTIPMHQCVTYLYPTLYAVHHLLSEPTSGVIDPETGHCVLPGWQQLIFDSITTDGVYVLCDEQARIVYLWIGSSVVPEVSLELFGTTNALDVGRTVFFENFGERLKNVLYTCLMRDDGMRRFVILHEKDRGEEAFFRQFKEENEGGSMGYDQLLVHLHREVKKSIE” the “soluble on expression in E. coli” value was “not soluble”.
For “MAHHHHHHMSWQGPRVLVVGENQWEREAVSRALLNLAVRHGSPYGICYVDLDVAMPMVGCPGTVSAAFVEEPVTAPEDFGVMMPLTFFHGTASVTSATRKRYLDLCVCAAQAATSLGFANSKFEAGGFLIHSLSPSTEIQHDVLSDVLSIFAVTHVVVTGADRELEKFLYNAVLGRTVHFVRLPKLAGVQSPSSAGAEQRRRAQLERYFFGTPRTPLVPVRGVARMSELVLLHAETFEPLSWREVPDLGLAAVVWADTAASAAEANVAGFVALLEVGKQFVSFLAPSGGELPKPFLVVSPSLHLPRELVMPLPVT”, the “soluble on expression in E. coli” value was “not soluble”.
With “MAHHHHHHMTDTTKGALKRSNTLFLSDAEQFVFDFGGSAGGRAVSPGSSHGSGGQPGEGDGEKGIEETDLANGRTGVVTPFSERERTAPVAPLDAEEVQRYFDKALKGGRRILLENVPLDEAIEKFQLGLRRYEEWLCNQANSRNRGDSSKSRGDPLNEGYRGKPGDVARDAKDRKRPRL” the “soluble on expression in E. coli” value was “not soluble”.
For “MAHHHHHHMTETVLRLGPQEYAHLTNLNTNTTELILGPLNRPVASHESVALPPTKFVVVPPTQYCLIANPHRTAVDPTTGIAQPVRDAYGQVQVRSGEEEYRWHVPPFPLYPEEAVVKLEDLKVLSARAALQIQVLAAYNVPACSASDSMPSPVRREAGERYSSAAPAPTTLALRSTSRRR”, the “soluble on expression in E. coli” value was “soluble”.
For “MAHHHHHHMTVHLLWIINQSGQLIAKSSFTAPENIGELGAKPDLQLTMSSILFSTYGMSQELTPNANPVDSAGMTLVECEEHNIHIYETPTLVKFVLVSDSRTRECNALFRELHSLYVEYVMKNPFHIVDEGGIGQPIRIAAFTGAVKRAVDRYHAAGVSNATRK”, the “soluble on expression in E. coli” value was “not soluble”.
For “MAHHHHHHMVGARFFFLNLPTSLSSASSLNRNKITSNRLPTDPSTPQWRDGYKLRKAVDDSSTQSTHRLPIYFCNAQRRVSSHSGRKTLLLATICIYDVGALDSFPIVLLVPLLNFIKSGLNEVDGSADCVDFSEYQCLTAPFPTTFRISLCPRLRFGGQFFFFCTHSRGDKNSRSILSHQRLAKFVPLFHTWYNEQDIS”, the “soluble on expression in E. coli” value was “not soluble”.
With “MAHHHHHHMVKETGLYDELGISPDATEPQIRSAYRRKALQYHPDKNSGDPAAAEKFKKVAEAYEILSDAERRKQYDTFGRNGPGGAAGGSGGVPGGGFGSSFGPGTDPMDIFSSFFGFASGGGPGASRQQRPAKPSFILVVLQCSLEELYCGTVKVLQVRRRRLCPSCHGHGTSSGRPSPVCPQCKGNKTVTKALNFGGLTAYQQCRCDHCEGLGKLPIRLPCARCGPVYDAHQRAPLSGTRKPDPLPRGVVVDEKMIKVSIEPGTEDSDALNYVGQGDELPGFGAVGDVLVVIEQLPHPHYHRLNSTDLLLSNCRVPLGCLFRDAFSIPIELLDGRVLRLATPLREGNVPHFLFDSQHVFVVDGEGMPLKGRKGGGAAADANHDDSGAADDVAYRKKGKLYLCVNVVFPSSLTPAQVDIIAKALGGDHERDPAATGEDAGRVVTLQPHHSPAPSWYTVDTEGNAWYQPNGPATAKKKRKATSTTA” the “soluble on expression in E. coli” value was “not soluble”.
In the case of “MAHHHHHHMVSVDTSTRRFLEMFCDFDAKRCKLCNETFLQWHIHANGIPHAGREGMLLELVRPYCGTPDELIEMWWQRLNSCAAFHRIPGLSHDNPHERKRRLLYLLKVLKDRGILVETFNVSDNQSTNSARSWEFERLEFVGDNVVKYVLNNIISCAFPPHEGGTKGKMTCFQFVMDGNDGLARGYDHLDLQQLASSPRVVSKFKSDIVETLFAELQMYLWSTQHDIGTCPLVFPFTKDIYTLRALVQHVLYELGIELFLYHIRHINGMLQRVMRENHLQFVKADSALKPRAGARTGSLGVSTRRGDWSDDDDDYDCPQSYGTPAVSAPTAALMKVRSQRTHVQGTGAALFFASTNYDNFKRVVPIGGLLPRPFARQDLSVIPNHMPHLRSDGAMTRRMRRVGNAGWSTLHATATALTTLESVADGLALSAETTPRVGSEPVRLSVPRLKDEELIPELI”, the “soluble on expression in E. coli” value is reported as “not soluble”.
With “MAHHHHHHMVWKGSRERGVQEYRKKSKGNKPTKGEKVSKKGVSSSRQPKQRELLSAKQQQQQNRKNEELRAALAGAFSTEVSSSNAGPAFDGYGKGSPTDRLQFGYAPAVAAEAVAYHSTISTDAWIEARRTRYRTAIVEQKKLRRPNCEPITSILKLQGHWRSTELFEREVHGSHAVAQDKVDDILDTFVSRQRVA” the “soluble on expression in E. coli” value was “not soluble”.
